Experiment: protein stability index of a GFP-peptide fusion (GPS, HEK-293T) (PSI 1-6); higher = more stable
[1] = parent: IOH13764_23, c terminus: a fixed tail appended
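Note: lentivirally expressed fusions sorted by FACS into six bins by GFP to DsRed ratio, PSI derived from sequencing read proportions per bin multiplied by bin number.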

## FQELAGKELCAMSEEQFRQRSPLG [SPDEF WT]
parent: IOH12673_30, c terminus: a fixed tail appended
  protein stability index: 2.63

## SLRENDFIEIELDRQELTYQELLR
parent: IOH13159_46, c terminus: a fixed tail appended
  protein stability index: 2.87

## QEAKLLHWNGRHKPWDFPSVHNDL [GLT8D2 WT]
parent: IOH13397_52, c terminus: a fixed tail appended
  protein stability index: 2.77

## VAHVESLQEKSQCALEEYVRSQYP
parent: IOH12813_56, c terminus: a fixed tail appended
  protein stability index: 3.61

## ELPNIKREISETEAKALLKERQKK
parent: IOH14020_55, c terminus: a fixed tail appended
  protein stability index: 2.4

## MTVEKEAPDAHFTVDKQNISLWPR [CD207 WT]
parent: IOH12930_1, c terminus: a fixed tail appended
  protein stability index: 3.23

## QCIECGKSFNRHCNLIRHQKIHTV
parent: IOH12838_62, c terminus: a fixed tail appended
  protein stability index: 3.73

## FWNFKQMWDSKKIGLRQHHCRKCG [WDFY2 WT]
parent: IOH13317_50, c terminus: a fixed tail appended
  protein stability index: 2

## KKVLNHGYDDDNHDYIVRSGERWL
parent: IOH14793_15, c terminus: a fixed tail appended
  protein stability index: 2.93

## NIPFFPDLQITDQVALLRLTWSEL
parent: IOH12813_39, c terminus: a fixed tail appended
  protein stability index: 2.29

## FLDERLYCESHAKARVKPPEGYDV [PDLIM4 WT]
parent: IOH13881_50, c terminus: a fixed tail appended
  protein stability index: 1.92

## VCCCELGVNPDQVEKIRKLPNTLL
parent: IOH13159_50, c terminus: a fixed tail appended
  protein stability index: 1.91

## YQELLRVCCCELGVNPDQVEKIRK
parent: IOH13159_49, c terminus: a fixed tail appended
  protein stability index: 2.07

## VVLKLFLSFSGSDVQNKLKESAQC
parent: IOH13259_29, c terminus: a fixed tail appended
  protein stability index: 2.49

## AVPTDEARAFAEKNNLSFIETSAL
[1]
  protein stability index: 2.72

## NIYYYLEDDSMSVIEPVVENSGIL [EFHC1 WT]
parent: IOH14055_21, c terminus: a fixed tail appended
  protein stability index: 2.15

## RKCPVHGKTMELFCQTDQTCICYL
parent: IOH13948_38, c terminus: a fixed tail appended
  protein stability index: 2.05

## EENMERIGEEVRQLMEKLREKQLS
parent: IOH13216_14, c terminus: a fixed tail appended
  protein stability index: 4.44

## YYPSGDAFASGSDDATCRLYDLRA
parent: IOH14466_42, c terminus: a fixed tail appended
  protein stability index: 2.4

## LHQETQLIHVYLPLTSHILRAFVN
parent: IOH13259_67, c terminus: a fixed tail appended
  protein stability index: 2.4

## YQSYFKTIEELQQKILCSKSENAR
parent: IOH13096_18, c terminus: a fixed tail appended
  protein stability index: 1.93

## WTVANMEEIKKLTTDPDLILEVLR [LARP4 WT]
parent: IOH13489_15, c terminus: a fixed tail appended
  protein stability index: 2.1

## QKRYHCKECGKVFSQSAGLIQHQR
parent: IOH12838_52, c terminus: a fixed tail appended
  protein stability index: 3.14

## DLSAANEKNLLLQNQVDELERKFR
parent: IOH13594_61, c terminus: a fixed tail appended
  protein stability index: 4.05

## FVENGHSESSGQTHLEGDTVQIIC [CFHR2 WT]
parent: IOH13657_16, c terminus: a fixed tail appended
  protein stability index: 2.78

## YVPEKVKKAEKKLEENPYDLDAWS [CSTF3 WT]
parent: IOH12987_3, c terminus: a fixed tail appended
  protein stability index: 2.14

## PRNSCITCPQCHRSLILDDRGLRG
parent: IOH12704_21, c terminus: a fixed tail appended
  protein stability index: 2.06

## SGLVRRLWRSRVVPDREEGGSGGG [SMAD6 WT]
parent: IOH13078_2, c terminus: a fixed tail appended
  protein stability index: 4.12

## PAVDLNQVLNETRNQYEALVETNR
parent: IOH13096_37, c terminus: a fixed tail appended
  protein stability index: 3.33

## AFLELPHGSGGSGYPAAPPAVPFA [TBX6 WT]
parent: IOH14639_65, c terminus: a fixed tail appended
  protein stability index: 2.31

## HSLRAVSTDPPHHDHHDEFCLMP
parent: IOH13216_18, c terminus: native
  protein stability index: 2.27

## TLAALLLNRSESDIRYLLGYVSQQ [FEM1B WT]
parent: IOH13134_4, c terminus: a fixed tail appended
  protein stability index: 2.44

## YQRVLPLPIFTPAKMGATKEERED [TCAP WT]
parent: IOH13813_15, c terminus: a fixed tail appended
  protein stability index: 2.04

## RKADFKAGKALVISGREVFEFRPE
parent: IOH14032_47, c terminus: a fixed tail appended
  protein stability index: 2.82

## ENLFTGEDLDELEEELNTLDLEE
parent: IOH14032_69, c terminus: native
  protein stability index: 4.42

## DINSVRYYPSGDAFASGSDDATCR
parent: IOH14466_41, c terminus: a fixed tail appended
  protein stability index: 3.92

## LWKMKPRRNLEEDDYLHKDTGETS
parent: IOH13052_3, c terminus: a fixed tail appended
  protein stability index: 4.46

## VRIQNPSLRENDFIEIELDRQELT
parent: IOH13159_45, c terminus: a fixed tail appended
  protein stability index: 2.38

## LVVFTASMEIYGSAVADKLDNSRS [DULLARD WT]
parent: IOH12711_22, c terminus: a fixed tail appended
  protein stability index: 2.76

## RSEFTLMAKRIGKDLSNTFAKLEK
parent: IOH14584_7, c terminus: a fixed tail appended
  protein stability index: 2.17

## FAEKGELRKSIFSESRKPTVSIME
parent: IOH13948_21, c terminus: a fixed tail appended
  protein stability index: 2.01

## RMVPALPPKRMLGADREFIEARRR
parent: IOH13259_22, c terminus: a fixed tail appended
  protein stability index: 3.67

## FQTRQEMTSMSAELKMRAIQAEER
parent: IOH13594_66, c terminus: a fixed tail appended
  protein stability index: 4

## FPSDHLGDLGDPFHLGLEDILMEE
parent: IOH14020_85, c terminus: a fixed tail appended
  protein stability index: 3.43

## AVPTDEARAFAEKNGLSFIETSAL
[1]
  protein stability index: 2.34

## YGETDFHKQDGKAGLFSQEQYERN [TMEM40 WT]
parent: IOH12831_5, c terminus: a fixed tail appended
  protein stability index: 4.04

## FWHDTLTEQLWRIFAGVHDEKAKP [TLE6 WT]
parent: IOH13956_6, c terminus: a fixed tail appended
  protein stability index: 1.76

## ESTIVELGSIFQQLAHMVKEQEET
parent: IOH14584_38, c terminus: a fixed tail appended
  protein stability index: 2.04

## YFKCVQKDIQPYMRRMVATWMLEV [CCND2 WT]
parent: IOH13739_8, c terminus: a fixed tail appended
  protein stability index: 2.47

## WMLTRKQFGLLSFFFAVLHAIYSL
parent: IOH13052_27, c terminus: a fixed tail appended
  protein stability index: 1.71

## ARKYFERLPGGGWTLRRTKELRKD
parent: IOH14793_58, c terminus: a fixed tail appended
  protein stability index: 3.49

## CVQCKMPVCYQCLEEGKHSSHEVK
parent: IOH12704_41, c terminus: a fixed tail appended
  protein stability index: 3.89

## FHLGLEDILMEEEEGVVGGLSGGA
parent: IOH14020_87, c terminus: a fixed tail appended
  protein stability index: 3.6

Reference: the supplement of paper PMC10567573
